Here are results for three molecules from patent publication US20260103748A1 (NAVINCI DIAGNOSTICS, published 2026).

For assay [1], the target named is T1, Beta-catenin (UniProt P35222 2-781).
T1 construct: Endogenous protein in fixed MCF-7 cells, detected through a primary antibody and oligonucleotide-conjugated secondary antibodies (in situ PLA); also called Beta-caternin
T1 sequence (looked up): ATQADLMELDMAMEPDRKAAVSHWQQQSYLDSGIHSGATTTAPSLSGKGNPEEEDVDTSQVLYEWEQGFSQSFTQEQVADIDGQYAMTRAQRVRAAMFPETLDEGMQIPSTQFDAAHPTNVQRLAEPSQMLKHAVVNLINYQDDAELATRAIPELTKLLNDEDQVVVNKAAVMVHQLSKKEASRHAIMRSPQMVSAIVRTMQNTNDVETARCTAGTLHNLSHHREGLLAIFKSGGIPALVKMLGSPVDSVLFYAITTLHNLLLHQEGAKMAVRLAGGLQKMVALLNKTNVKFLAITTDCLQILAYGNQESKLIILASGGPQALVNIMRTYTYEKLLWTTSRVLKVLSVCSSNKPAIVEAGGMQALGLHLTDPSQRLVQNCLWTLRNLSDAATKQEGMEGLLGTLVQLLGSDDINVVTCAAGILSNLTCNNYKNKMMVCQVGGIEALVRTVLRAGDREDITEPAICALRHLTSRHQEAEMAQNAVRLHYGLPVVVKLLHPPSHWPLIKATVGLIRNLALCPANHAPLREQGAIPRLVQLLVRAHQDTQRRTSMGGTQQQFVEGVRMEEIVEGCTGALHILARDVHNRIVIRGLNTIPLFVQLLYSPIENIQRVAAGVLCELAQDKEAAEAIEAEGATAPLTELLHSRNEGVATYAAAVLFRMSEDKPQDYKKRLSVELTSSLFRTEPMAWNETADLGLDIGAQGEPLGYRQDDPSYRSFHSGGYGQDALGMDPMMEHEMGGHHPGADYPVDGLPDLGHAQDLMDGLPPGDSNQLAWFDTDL
As to the kind of experiment: in situ proximity ligation assay on fixed MCF-7 cells, with blocking oligonucleotide 13+13, RCA and Cy5 detection.
Protocol: The validation of the design was performed on MCF-7 cells, using a high concentration of proximity probes (conjugated secondary antibodies), probe A: anti-Mouse, with padlocks hybridized; probe B: anti-Rabbit with ligation templates (24 nt hybridization site, 12 nt on each end), 50 nM each). After incubation the fixed MCF-7 cells with (one or both primary antibody for Beta-caternin and E-cadherin) or without the primary antibodies (-primary) and washing, the secondary antibodies with (1 uM blocking oligos, 13 nt hybridization site on both ends) or without blocking oligos were applied to the MCF-7 cells.
When the probe A and B bind in close proximity, the blocking oligonucleotide can be competed away. The signal here results from the rolling cycle amplification products, representing the close proximity of Beta-catenin and E-cadherin detected by Cy5 labelled detection oligonucleotides, the nuclei were stained with DAPI.

Assay [2] addresses T2, AKT2 (human, UniProt P31751 1-481).
T2 construct: Endogenous protein in fixed human breast cancer cells (isPLA)
As to the kind of experiment: multiplex in situ PLA on fixed human breast cancer cells with or without EGF. The method, then:
(§1) Detection was performed in three imaging rounds with stripping of the specific fluorescently-labelled detection probe between rounds. DAPI staining is shown in each image. Three isPLA reactions are detected per round using either a FITC, Cy3 or Cy5 filter. The isPLA assays target protein phosphorylation-protein or protein-protein interactions.
(§2) In situ PLA probes using the set-up illustrated in FIG. 3 were generated to target protein-protein interactions or protein-protein phosphorylation targets. Each isPLA probe set contains a unique oligonucleotide sequence that is complimentary to a fluorescent-conjugated detection oligonucleotide. The detection oligos are conjugated to either FITC, Cy3 or Cy5.
(§3) Following probe incubation, the padlocks were circularised by ligation, subjected to RCA to generate RCA products and detected with fluorescently labelled detection probes. Detection was performed in three rounds (see FIG. 11). […] Next, the detection oligos were stripped and new detection oligos were added targeting phosphorylated Grb2, phosphorylated Pi3K and phosphorylated STAT3. The same procedure was repeated again to detect phosphorylated Pi3K-PanAKT interaction, STAT5a-JAK2 interaction and JAK1-JAK3 interaction.

Assay [3] addresses T3, JAK2 (human, UniProt O60674 1-1132).
T3 construct: Endogenous protein in fixed human breast cancer cells (isPLA)
The assay is described as above. On the procedure: as §1, §2, §3

T2 sequence (P31751 whole entry): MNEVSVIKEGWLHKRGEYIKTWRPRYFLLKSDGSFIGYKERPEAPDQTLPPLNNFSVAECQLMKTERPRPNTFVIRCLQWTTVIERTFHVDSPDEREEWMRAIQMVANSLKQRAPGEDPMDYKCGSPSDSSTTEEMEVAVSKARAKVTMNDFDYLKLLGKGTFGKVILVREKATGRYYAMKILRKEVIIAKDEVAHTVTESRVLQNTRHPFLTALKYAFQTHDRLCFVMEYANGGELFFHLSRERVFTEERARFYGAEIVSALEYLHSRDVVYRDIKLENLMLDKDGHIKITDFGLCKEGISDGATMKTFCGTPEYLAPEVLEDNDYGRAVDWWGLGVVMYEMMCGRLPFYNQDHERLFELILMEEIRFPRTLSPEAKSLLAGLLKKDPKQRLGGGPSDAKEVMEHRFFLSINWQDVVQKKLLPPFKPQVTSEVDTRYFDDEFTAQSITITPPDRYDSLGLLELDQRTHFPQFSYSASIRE
T3 sequence (O60674 whole entry): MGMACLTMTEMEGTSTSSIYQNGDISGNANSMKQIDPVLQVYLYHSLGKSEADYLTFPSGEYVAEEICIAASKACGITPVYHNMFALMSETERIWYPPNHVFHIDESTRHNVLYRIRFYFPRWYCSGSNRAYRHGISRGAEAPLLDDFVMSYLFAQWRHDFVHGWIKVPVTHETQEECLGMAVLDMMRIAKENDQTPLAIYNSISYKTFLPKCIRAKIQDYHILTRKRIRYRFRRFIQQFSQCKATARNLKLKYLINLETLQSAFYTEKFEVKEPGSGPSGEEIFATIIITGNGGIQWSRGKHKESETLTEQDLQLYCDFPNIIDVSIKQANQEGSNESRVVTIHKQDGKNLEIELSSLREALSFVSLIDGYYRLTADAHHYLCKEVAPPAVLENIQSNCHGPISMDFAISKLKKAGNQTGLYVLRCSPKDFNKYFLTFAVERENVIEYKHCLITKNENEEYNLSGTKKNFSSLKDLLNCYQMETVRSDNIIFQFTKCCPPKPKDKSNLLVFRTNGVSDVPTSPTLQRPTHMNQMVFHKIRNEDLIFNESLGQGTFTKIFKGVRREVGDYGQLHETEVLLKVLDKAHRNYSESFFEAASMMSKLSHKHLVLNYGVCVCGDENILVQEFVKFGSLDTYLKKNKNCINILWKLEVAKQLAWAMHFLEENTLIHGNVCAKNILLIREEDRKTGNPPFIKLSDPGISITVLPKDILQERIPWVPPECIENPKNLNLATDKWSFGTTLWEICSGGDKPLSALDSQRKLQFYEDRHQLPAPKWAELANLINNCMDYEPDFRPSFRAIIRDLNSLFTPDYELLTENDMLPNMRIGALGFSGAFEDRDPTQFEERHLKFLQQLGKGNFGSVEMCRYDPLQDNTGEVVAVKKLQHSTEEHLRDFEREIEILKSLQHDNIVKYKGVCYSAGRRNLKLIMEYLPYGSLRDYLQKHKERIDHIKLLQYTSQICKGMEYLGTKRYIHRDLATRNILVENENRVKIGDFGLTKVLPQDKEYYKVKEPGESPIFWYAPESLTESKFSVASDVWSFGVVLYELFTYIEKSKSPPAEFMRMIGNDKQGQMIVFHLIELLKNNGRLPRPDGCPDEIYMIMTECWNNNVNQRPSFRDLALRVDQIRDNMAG

B1: E-cadherin (other, UniProt P12830 155-882, looked up)
chain: DWVIPPISCPENEKGPFPKNLVQIKSNKDKEGKVFYSITGQGADTPPVGVFIIERETGWLKVTEPLDRERIATYTLFSHAVSSNGNAVEDPMEILITVTDQNDNKPEFTQEVFKGSVMEGALPGTSVMEVTATDADDDVNTYNAAIAYTILSQDPELPDKNMFTINRNTGVISVVTTGLDRESFPTYTLVVQAADLQGEGLSTTATAVITVTDTNDNPPIFNPTTYKGQVPENEANVVITTLKVTDADAPNTPAWEAVYTILNDDGGQFVVTTNPVNNDGILKTAKGLDFEAKQQYILHVAVTNVVPFEVSLTTSTATVTVDVLDVNEAPIFVPPEKRVEVSEDFGVGQEITSYTAQEPDTFMEQKITYRIWRDTANWLEINPDTGAISTRAELDREDFEHVKNSTYTALIIATDNGSPVATGTGTLLLILSDVNDNAPIPEPRTIFFCERNPKPQVINIIDADLPPNTSPFTAELTHGASANWTIQYNDPTQESIILKPKMALEVGDYKINLKLMDNQNKDQVTTLEVSVCDCEGAAGVCRKAQPVEAGLQIPAILGILGGILALLILILLLLLFLRRRAVVKEPLLPPEDDTRDNVYYYDEEGGGEEDQDFDLSQLHRGLDARPEVTRNDVAPTLMSVPRYLPRPANPDEIGNFIDENLKAADTDPTAPPYDSLLVFDYEGSGSEAASLSSLNSSESDKDQDYDYLNEWGNRFKKLADMYGGGEDD
notes: Endogenous protein in fixed MCF-7 cells, detected through a primary antibody and oligonucleotide-conjugated secondary antibodies (in situ PLA)
For the molecule B1, the binding result in assay [1] is given as “binds”.

B2: AKT3 (enzyme, human, UniProt Q9Y243 2-479, looked up)
chain: SDVTIVKEGWVQKRGEYIKNWRPRYFLLKTDGSFIGYKEKPQDVDLPYPLNNFSVAKCQLMKTERPKPNTFIIRCLQWTTVIERTFHVDTPEEREEWTEAIQAVADRLQRQEEERMNCSPTSQIDNIGEEEMDASTTHHKRKTMNDFDYLKLLGKGTFGKVILVREKASGKYYAMKILKKEVIIAKDEVAHTLTESRVLKNTRHPFLTSLKYSFQTKDRLCFVMEYVNGGELFFHLSRERVFSEDRTRFYGAEIVSALDYLHSGKIVYRDLKLENLMLDKDGHIKITDFGLCKEGITDAATMKTFCGTPEYLAPEVLEDNDYGRAVDWWGLGVVMYEMMCGRLPFYNQDHEKLFELILMEDIKFPRTLSSDAKSLLSGLLIKDPNKRLGGGPDDAKEIMRHSFFSGVNWQDVYDKKLVPPFKPQVTSETDTRYFDEEFTAQTITITPPEKYDEDGMDCMDNERRPHFPQFSYSASGRE
notes: Endogenous protein in fixed human breast cancer cells (isPLA)
As for B2, in assay [2], the binding result is “binds”.

B3: STAT5a (other, human, UniProt P42229 1-794, looked up)
chain: MAGWIQAQQLQGDALRQMQVLYGQHFPIEVRHYLAQWIESQPWDAIDLDNPQDRAQATQLLEGLVQELQKKAEHQVGEDGFLLKIKLGHYATQLQKTYDRCPLELVRCIRHILYNEQRLVREANNCSSPAGILVDAMSQKHLQINQTFEELRLVTQDTENELKKLQQTQEYFIIQYQESLRIQAQFAQLAQLSPQERLSRETALQQKQVSLEAWLQREAQTLQQYRVELAEKHQKTLQLLRKQQTIILDDELIQWKRRQQLAGNGGPPEGSLDVLQSWCEKLAEIIWQNRQQIRRAEHLCQQLPIPGPVEEMLAEVNATITDIISALVTSTFIIEKQPPQVLKTQTKFAATVRLLVGGKLNVHMNPPQVKATIISEQQAKSLLKNENTRNECSGEILNNCCVMEYHQATGTLSAHFRNMSLKRIKRADRRGAESVTEEKFTVLFESQFSVGSNELVFQVKTLSLPVVVIVHGSQDHNATATVLWDNAFAEPGRVPFAVPDKVLWPQLCEALNMKFKAEVQSNRGLTKENLVFLAQKLFNNSSSHLEDYSGLSVSWSQFNRENLPGWNYTFWQWFDGVMEVLKKHHKPHWNDGAILGFVNKQQAHDLLINKPDGTFLLRFSDSEIGGITIAWKFDSPERNLWNLKPFTTRDFSIRSLADRLGDLSYLIYVFPDRPKDEVFSKYYTPVLAKAVDGYVKPQIKQVVPEFVNASADAGGSSATYMDQAPSPAVCPQAPYNMYPQNPDHVLDQDGEFDLDETMDVARHVEELLRRPMDSLDSRLSPPAGLFTSARGSLS
notes: as for B2
As for B3, the binding result in assay [3] is “binds”.
